Among the data in publication PMC9482650, “Quantitative fragmentomics allow affinity mapping of interactomes” (Nature Communications, 2022) are pKd values, retold here.

Targets include AHNAK1, Q09666; DLG2_3, Q15700; GORASP2, Q9H8Y8; GRIP2_3, Q9C0E4; GRIP2_5, Q9C0E4; HTRA2, O43464; Inadl_4, Q8NI35; TJP1_2, Q07157.
Holding throughout (test): holdup assay
What all share (set-up): key: below the threshold = too weak to quantify, mostly under pKd 3.1 to 4

The next test has as its target T1, APBA1_1, Q02410.
T1 sequence (Q02410 651-752, limits assumed, looked up): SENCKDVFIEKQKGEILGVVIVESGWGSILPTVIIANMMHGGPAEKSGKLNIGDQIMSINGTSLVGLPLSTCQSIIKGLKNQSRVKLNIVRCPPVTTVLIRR

A further test deals with T2, CARD11, Q9BXL7.
T2 sequence (Q9BXL7 662-765, limits assumed, looked up): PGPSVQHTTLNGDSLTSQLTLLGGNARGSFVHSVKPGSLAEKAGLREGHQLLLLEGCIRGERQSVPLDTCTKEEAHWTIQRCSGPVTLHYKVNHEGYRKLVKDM

In another test the target is T3, DFNB31_2, Q9P202.
T3 sequence (Q9P202 274-371, limits assumed, looked up): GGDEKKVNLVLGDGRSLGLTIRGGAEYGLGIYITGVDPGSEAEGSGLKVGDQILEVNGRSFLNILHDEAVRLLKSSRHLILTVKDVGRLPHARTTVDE

For a further test, the target named is T4, GRIP1_2, Q9Y3R0.
T4 sequence (Q9Y3R0 145-248, limits assumed, looked up): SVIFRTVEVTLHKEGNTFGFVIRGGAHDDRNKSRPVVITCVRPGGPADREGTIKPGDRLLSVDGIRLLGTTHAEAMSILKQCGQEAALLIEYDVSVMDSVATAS

Another test concerns the target T5, GRIP1_3, Q9Y3R0.
T5 sequence (Q9Y3R0 247-346, limits assumed, looked up): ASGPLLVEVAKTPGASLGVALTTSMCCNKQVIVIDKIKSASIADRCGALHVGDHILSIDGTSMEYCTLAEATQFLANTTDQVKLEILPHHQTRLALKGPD

In another test the target is T6, GRIP1_5, Q9Y3R0.
T6 sequence (Q9Y3R0 568-668, limits assumed, looked up): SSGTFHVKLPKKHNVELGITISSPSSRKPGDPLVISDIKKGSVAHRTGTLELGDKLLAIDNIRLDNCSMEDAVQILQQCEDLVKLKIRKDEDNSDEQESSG

The target of a further test is T7, LNX2_2, Q8N448.
T7 sequence (Q8N448 334-432, limits assumed, looked up): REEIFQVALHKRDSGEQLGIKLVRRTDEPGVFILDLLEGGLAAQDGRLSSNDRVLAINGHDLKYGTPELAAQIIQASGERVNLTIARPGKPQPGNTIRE

A further test concerns the target T8, MPDZ_10, O75970.
T8 sequence (O75970 1624-1722, limits assumed, looked up): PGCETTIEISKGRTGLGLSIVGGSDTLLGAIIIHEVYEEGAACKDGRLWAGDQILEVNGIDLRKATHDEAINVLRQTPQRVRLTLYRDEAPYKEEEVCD

The next test addresses T9, MPP6, Q9NZW5.
T9 sequence (Q9NZW5 125-219, limits assumed, looked up): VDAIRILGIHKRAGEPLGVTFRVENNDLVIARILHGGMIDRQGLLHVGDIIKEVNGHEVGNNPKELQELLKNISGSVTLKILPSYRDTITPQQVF

For a further test, the target named is T10, PTPN13_1, Q12923.
T10 sequence (Q12923 1088-1188, limits assumed, looked up): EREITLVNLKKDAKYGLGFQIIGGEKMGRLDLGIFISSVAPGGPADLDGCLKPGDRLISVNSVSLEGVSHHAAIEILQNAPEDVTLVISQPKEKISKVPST

The next test has as its target T11, SIPA1L2, Q9P2F8.
T11 sequence (Q9P2F8 945-1036, limits assumed, looked up): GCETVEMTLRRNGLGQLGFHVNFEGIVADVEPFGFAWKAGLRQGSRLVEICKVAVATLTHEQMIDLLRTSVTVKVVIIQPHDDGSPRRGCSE

The target of another test is T12, SNTA1, Q13424.
T12 sequence (Q13424 82-180, limits assumed, looked up): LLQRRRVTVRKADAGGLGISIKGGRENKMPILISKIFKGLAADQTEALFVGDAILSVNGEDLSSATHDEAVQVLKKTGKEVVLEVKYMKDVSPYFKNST

The next test has as its target T13, TJP3_3, O95049.
T13 sequence (O95049 375-456, limits assumed, looked up): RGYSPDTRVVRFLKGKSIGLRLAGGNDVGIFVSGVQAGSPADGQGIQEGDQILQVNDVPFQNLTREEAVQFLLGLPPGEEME

In the next test the target is T14, TX1BP3, O14907.
T14 sequence (O14907 10-122, limits assumed, looked up): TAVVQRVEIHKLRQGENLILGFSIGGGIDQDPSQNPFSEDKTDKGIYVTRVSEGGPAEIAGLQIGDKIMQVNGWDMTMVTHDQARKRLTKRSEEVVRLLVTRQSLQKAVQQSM

[1] abbreviates: plain residues with an end cap or a label only (N-terminal biotin on a linker: ahx).
[2] abbreviates: plain residues with an end cap or a label only (N-terminal biotin on a linker: ttds).

Sequence of TJP1_2, Q07157 (Q07157 181-274): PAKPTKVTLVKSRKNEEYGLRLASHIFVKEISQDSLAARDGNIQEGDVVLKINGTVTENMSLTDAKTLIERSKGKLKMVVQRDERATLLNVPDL
Sequence of GRIP2_3, Q9C0E4 (Q9C0E4 238-339): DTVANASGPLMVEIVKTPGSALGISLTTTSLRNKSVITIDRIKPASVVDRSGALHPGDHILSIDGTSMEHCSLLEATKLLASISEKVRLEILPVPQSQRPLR
Sequence of AHNAK1, Q09666 (Q09666 4-100): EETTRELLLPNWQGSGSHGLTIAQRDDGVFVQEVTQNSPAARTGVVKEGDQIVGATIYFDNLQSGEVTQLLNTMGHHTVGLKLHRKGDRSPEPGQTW
Sequence of GRIP2_5, Q9C0E4 (Q9C0E4 544-642): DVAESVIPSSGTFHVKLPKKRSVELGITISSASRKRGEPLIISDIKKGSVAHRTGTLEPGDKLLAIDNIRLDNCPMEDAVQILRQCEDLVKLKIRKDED
Sequence of Inadl_4, Q8NI35 (Q8NI35 547-651): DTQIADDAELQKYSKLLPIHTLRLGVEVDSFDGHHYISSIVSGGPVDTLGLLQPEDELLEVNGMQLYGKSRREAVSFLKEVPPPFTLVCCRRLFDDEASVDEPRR
Sequence of HTRA2, O43464 (O43464 355-458): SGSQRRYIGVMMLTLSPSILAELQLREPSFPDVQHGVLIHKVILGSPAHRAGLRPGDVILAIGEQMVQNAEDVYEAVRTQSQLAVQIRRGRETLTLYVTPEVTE

B1: NRXN1, Q9ULB1 (peptide)
chain: KKNKDKEYYV
Turning to B1, the pKd (as a rule, −log10 of the Kd, conventionally taken in molar units) with AHNAK1, Q09666 (setting [1]) is “below the threshold”; with APBA1_1, Q02410 (setting [1]), “below the threshold”; with CARD11, Q9BXL7 (setting [1]), “below the threshold”; with DFNB31_2, Q9P202 (setting [1]), “below the threshold”; in the test with DLG2_3, Q15700 (setting [1]) it was “below the threshold”; with GORASP2, Q9H8Y8 (setting [1]) it was 4.33. Also, the negative logarithm of the Kd (pKd) entry in the test with GRIP1_2, Q9Y3R0 (setting [1]) was “below the threshold”; with GRIP1_3, Q9Y3R0 (setting [1]), “below the threshold”; with GRIP1_5, Q9Y3R0 (setting [1]), “below the threshold”; in the test with GRIP2_3, Q9C0E4 (setting [1]), “below the threshold”; with GRIP2_5, Q9C0E4 (setting [1]), “below the threshold”; with HTRA2, O43464 (setting [1]), “below the threshold”. For the same molecule, the negative logarithm of the Kd (pKd) result with Inadl_4, Q8NI35 (setting [1]) is “below the threshold”; with LNX2_2, Q8N448 (setting [1]), 4.16; in the test with MPDZ_10, O75970 (setting [1]), “below the threshold”; in the test with MPP6, Q9NZW5 (setting [1]), “below the threshold”; with PTPN13_1, Q12923 (setting [1]), “below the threshold”; with SIPA1L2, Q9P2F8 (setting [1]), “below the threshold”. Further, the pKd result is given as “below the threshold” in the test with SNTA1, Q13424 (setting [1]); “below the threshold” with TJP1_2, Q07157 (setting [1]); “below the threshold” with TJP3_3, O95049 (setting [1]); “below the threshold” in the test with TX1BP3, O14907 (setting [1]).

B2: PTEN, P60484 (peptide)
chain: DEDQHTQITKV
Consider B2, for which the pKd result is “below the threshold” in the test with AHNAK1, Q09666 (setting [2]); “below the threshold” with APBA1_1, Q02410 (setting [2]); “below the threshold” with CARD11, Q9BXL7 (setting [2]); 3.62 in the test with DFNB31_2, Q9P202 (setting [2]); “below the threshold” with DLG2_3, Q15700 (setting [2]); 3.82 with GORASP2, Q9H8Y8 (setting [2]). Moreover, the pKd result was “below the threshold” with GRIP1_3, Q9Y3R0 (setting [2]); 3.72 in the test with GRIP1_5, Q9Y3R0 (setting [2]); 3.56 with GRIP2_3, Q9C0E4 (setting [2]); “below the threshold” with GRIP2_5, Q9C0E4 (setting [2]); “below the threshold” in the test with HTRA2, O43464 (setting [2]); “below the threshold” with Inadl_4, Q8NI35 (setting [2]). The negative-log Kd (pKd) with LNX2_2, Q8N448 (setting [2]) is 4.25; in the test with MPDZ_10, O75970 (setting [2]) it was 3.98; in the test with MPP6, Q9NZW5 (setting [2]) it was “below the threshold”; with PTPN13_1, Q12923 (setting [2]), “below the threshold”; in the test with SIPA1L2, Q9P2F8 (setting [2]), “below the threshold”; with SNTA1, Q13424 (setting [2]), 4.04. For the same molecule, the pKd entry in the test with TJP1_2, Q07157 (setting [2]) is listed as “below the threshold”; in the test with TJP3_3, O95049 (setting [2]), “below the threshold”; in the test with TX1BP3, O14907 (setting [2]), “below the threshold”.

B3: KCNA5, P22460 (peptide)
chain: CLDTSRETDL
Turning to B3, the pKd result with AHNAK1, Q09666 (setting [2]) is “below the threshold”; in the test with APBA1_1, Q02410 (setting [2]), “below the threshold”; with CARD11, Q9BXL7 (setting [2]) it was “below the threshold”; with DFNB31_2, Q9P202 (setting [2]), “below the threshold”; with DLG2_3, Q15700 (setting [2]) it was “below the threshold”; with GORASP2, Q9H8Y8 (setting [2]), 3.58. The pKd with GRIP1_2, Q9Y3R0 (setting [2]) is 3.65; in the test with GRIP1_3, Q9Y3R0 (setting [2]) it was 3.66; with GRIP1_5, Q9Y3R0 (setting [2]), “below the threshold”; in the test with GRIP2_3, Q9C0E4 (setting [2]), “below the threshold”; with GRIP2_5, Q9C0E4 (setting [2]), “below the threshold”; in the test with HTRA2, O43464 (setting [2]), “below the threshold”. Further, the pKd entry with Inadl_4, Q8NI35 (setting [2]) was “below the threshold”; with LNX2_2, Q8N448 (setting [2]), “below the threshold”; with MPDZ_10, O75970 (setting [2]), “below the threshold”; with MPP6, Q9NZW5 (setting [2]), “below the threshold”; with PTPN13_1, Q12923 (setting [2]), “below the threshold”; in the test with SIPA1L2, Q9P2F8 (setting [2]), “below the threshold”. The negative logarithm of the Kd (pKd) with SNTA1, Q13424 (setting [2]) was 5.34; with TJP1_2, Q07157 (setting [2]), “below the threshold”; with TJP3_3, O95049 (setting [2]), “below the threshold”; with TX1BP3, O14907 (setting [2]), 4.28.

B4: RAPGEF2, Q9Y4G8 (peptide)
chain: EDEDEQVSAV
On to B4, for which the negative logarithm of the Kd (pKd) result is on record as “below the threshold” in the test with AHNAK1, Q09666 (setting [1]); “below the threshold” in the test with APBA1_1, Q02410 (setting [1]); “below the threshold” in the test with CARD11, Q9BXL7 (setting [1]); “below the threshold” with DFNB31_2, Q9P202 (setting [1]); “below the threshold” in the test with DLG2_3, Q15700 (setting [1]); “below the threshold” with GORASP2, Q9H8Y8 (setting [1]). In addition, the negative logarithm of the Kd (pKd) entry with GRIP1_2, Q9Y3R0 (setting [1]) is on record as “below the threshold”; with GRIP1_3, Q9Y3R0 (setting [1]) it was “below the threshold”; with GRIP1_5, Q9Y3R0 (setting [1]) it was “below the threshold”; in the test with GRIP2_3, Q9C0E4 (setting [1]), “below the threshold”; in the test with GRIP2_5, Q9C0E4 (setting [1]), “below the threshold”; with HTRA2, O43464 (setting [1]), “below the threshold”. Besides, the negative-log Kd (pKd) entry was “below the threshold” with Inadl_4, Q8NI35 (setting [1]); “below the threshold” with LNX2_2, Q8N448 (setting [1]); 3.82 in the test with MPDZ_10, O75970 (setting [1]); “below the threshold” with MPP6, Q9NZW5 (setting [1]); “below the threshold” with PTPN13_1, Q12923 (setting [1]); “below the threshold” in the test with SIPA1L2, Q9P2F8 (setting [1]). Besides, the negative-log Kd (pKd) with SNTA1, Q13424 (setting [1]) is 3.61; with TJP1_2, Q07157 (setting [1]), “below the threshold”; with TJP3_3, O95049 (setting [1]), “below the threshold”; with TX1BP3, O14907 (setting [1]) it was “below the threshold”.

B5: SHROOM3, Q8TF72 (peptide)
chain: GIFPTLTSPL
In the case of B5, the pKd entry is reported as “below the threshold” in the test with AHNAK1, Q09666 (setting [1]); “below the threshold” with APBA1_1, Q02410 (setting [1]); “below the threshold” in the test with CARD11, Q9BXL7 (setting [1]); “below the threshold” in the test with DFNB31_2, Q9P202 (setting [1]); “below the threshold” with DLG2_3, Q15700 (setting [1]); “below the threshold” with GORASP2, Q9H8Y8 (setting [1]). The negative logarithm of the Kd (pKd) result with GRIP1_3, Q9Y3R0 (setting [1]) was “below the threshold”; with GRIP1_5, Q9Y3R0 (setting [1]) it was “below the threshold”; with GRIP2_3, Q9C0E4 (setting [1]) it was “below the threshold”; with GRIP2_5, Q9C0E4 (setting [1]) it was “below the threshold”; in the test with HTRA2, O43464 (setting [1]), “below the threshold”; with Inadl_4, Q8NI35 (setting [1]), “below the threshold”. Also, the pKd entry with LNX2_2, Q8N448 (setting [1]) was “below the threshold”; with MPDZ_10, O75970 (setting [1]), 3.77; with MPP6, Q9NZW5 (setting [1]) it was “below the threshold”; with PTPN13_1, Q12923 (setting [1]), “below the threshold”; with SIPA1L2, Q9P2F8 (setting [1]), “below the threshold”; in the test with SNTA1, Q13424 (setting [1]), “below the threshold”. Besides, the pKd entry with TJP1_2, Q07157 (setting [1]) was “below the threshold”; in the test with TJP3_3, O95049 (setting [1]) it was “below the threshold”; with TX1BP3, O14907 (setting [1]) it was 3.65.
